# Experimental data reported in patent US20140287471A1, “VARIANT CBH I POLYPEPTIDES WITH REDUCED PRODUCT INHIBITION” (BP CORPORATION NORTN AMERICA INC., priority 2011, published 2014).
# Changes are numbered by the printed parent chain.
# B1: 268Pro (protein, UniProt P62694 18-513, looked up, variant R268P)
# Exoglucanase 1: QSACTLQSETHPPLTWQKCSSGGTCTQQTGSVVIDANWRWTHATNSSTNCYDGNTWSSTLCPDNETCAKNCCLDGAAYASTYGVTTSGNSLSIGFVTQSAQKNVGARLYLMASDTTYQEFTLLGNEFSFDVDVSQLPCGLNGALYFVSMDADGGVSKYPTNTAGAKYGTGYCDSQCPRDLKFINGQANVEGWEPSSNNANTGIGGHGSCCSEMDIWEANSISEALTPHPCTTVGQEICEGDGCGGTYSDNPYGGTCDPDGCDWNPYRLGNTSFYGPGSSFTLDTTKKLTVVTQFETSGAINRYYVQNGVTFQQPNAELGSYSGNELNDDYCTAEEAEFGGSSFSDKGGLTQFKKATSGGMVLVMSLWDDYYANMLWLDSTYPTNETSSTPGAVRGSCSTSSGVPAQVESQSPNAKVTFSNIKFGPIGSTGNPSGGNPPGGNRGTTTTRRPATTTGSSPGPTQSHYGQCGGIGYSGPTVCASGTTCQVLNPYYSQCL
# B2: 268Ala (protein, UniProt P62694 18-513, looked up, variant R268A)
# Exoglucanase 1: B1 Exoglucanase 1 with P251A
# B3: 268Leu (protein, UniProt P62694 18-513, looked up, variant R268L)
# Exoglucanase 1: B1 Exoglucanase 1 with P251L
# B4: 268Phe (protein, UniProt P62694 18-513, looked up, variant R268F)
# Exoglucanase 1: B1 Exoglucanase 1 with P251F
# B5: 411Pro (protein, UniProt P62694 18-513, looked up, variant R411P)
# Exoglucanase 1: B1 Exoglucanase 1 with P251R, R394P
# B6: 411Leu (protein, UniProt P62694 18-513, looked up, variant R411L)
# Exoglucanase 1: B1 Exoglucanase 1 with P251R, R394L
# B7: 411Val (protein, UniProt P62694 18-513, looked up, variant R411V)
# Exoglucanase 1: B1 Exoglucanase 1 with P251R, R394V
# B8: 268A+411Met (protein, UniProt P62694 18-513, looked up, variant R268A R411M)
# Exoglucanase 1: B1 Exoglucanase 1 with P251A, R394M
# B9: 268A+411Leu (protein, UniProt P62694 18-513, looked up, variant R268A R411L)
# Exoglucanase 1: B1 Exoglucanase 1 with P251A, R394L
# B10: 268A+411Val (protein, UniProt P62694 18-513, looked up, variant R268A R411V)
# Exoglucanase 1: B1 Exoglucanase 1 with P251A, R394V
# B11: 268A+411Ile (protein, UniProt P62694 18-513, looked up, variant R268A R411I)
# Exoglucanase 1: B1 Exoglucanase 1 with P251A, R394I
# B12: 268Val+411A (protein, UniProt P62694 18-513, looked up, variant R268V R411A)
# Exoglucanase 1: B1 Exoglucanase 1 with P251V, R394A
# B13: 268Trp+411A (protein, UniProt P62694 18-513, looked up, variant R268W R411A)
# Exoglucanase 1: B1 Exoglucanase 1 with P251W, R394A
# B14: 268His+411A (protein, UniProt P62694 18-513, looked up, variant R268H R411A)
# Exoglucanase 1: B1 Exoglucanase 1 with P251H, R394A
# B15: 268Phe+411A (protein, UniProt P62694 18-513, looked up, variant R268F R411A)
# Exoglucanase 1: B1 Exoglucanase 1 with P251F, R394A
# B16: 268Ser+411A (protein, UniProt P62694 18-513, looked up, variant R268S R411A)
# Exoglucanase 1: B1 Exoglucanase 1 with P251S, R394A
# B17: 268Lys+411A (protein, UniProt P62694 18-513, looked up, variant R268K R411A)
# Exoglucanase 1: B1 Exoglucanase 1 with P251K, R394A
# B18: 268Arg+411A (protein, UniProt P62694 18-513, looked up, variant R411A)
# Exoglucanase 1: B1 Exoglucanase 1 with P251R, R394A
# B19: 268Gln+411A (protein, UniProt P62694 18-513, looked up, variant R268Q R411A)
# Exoglucanase 1: B1 Exoglucanase 1 with P251Q, R394A
# B20: 268Cys+411A (protein, UniProt P62694 18-513, looked up, variant R268C R411A)
# Exoglucanase 1: B1 Exoglucanase 1 with P251C, R394A
# B21: 268Glu+411A (protein, UniProt P62694 18-513, looked up, variant R268E R411A)
# Exoglucanase 1: B1 Exoglucanase 1 with P251E, R394A
# B22: 268Pro+411A (protein, UniProt P62694 18-513, looked up, variant R268P R411A)
# Exoglucanase 1: B1 Exoglucanase 1 with R394A
# Assay: 4-MUL assay, specific activity (Example 2)
# Assay type: biochemical
# Conditions: 268 single substitution
# Summary of the method: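 Specific activity derived from 4-MU standard curves and HPLC-quantified enzyme. Initial rates were taken over the first 15 min, with an endpoint read at 1 h (pH 10 carbonate quench), all at ex 365/em 450 nm. Conditions: 0.5 mM 4-MUL, 5 μg/mL enzyme, MES pH 6, 25 mM gluconolactone, cellobiose optional.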
Molecule,268— Measured Specific Activity (SA),268— Δ SA* (change in specific activity; ratio of variant: WT)
B1,3.38 μmol 4 MU/min/mg CBH I,4.4
B2,2.97 μmol 4 MU/min/mg CBH I,3.9
B3,1.83 μmol 4 MU/min/mg CBH I,2.4
B4,,0.5

# Same assay, conditions: 411 single substitution
Molecule,411— Measured Specific Activity (SA),411— Δ SA* (change in specific activity; ratio of variant: WT)
B5,0.70 μmol 4 MU/min/mg CBH I,0.9
B6,,0.2
B7,0.65 μmol 4 MU/min/mg CBH I,0.9

# Same assay, conditions: double mutant 268A+411X
Molecule,268A+411— Measured Specific Activity (SA),268A+411— Δ SA* (change in specific activity; ratio of variant: WT)
B8,1.78 μmol 4 MU/min/mg CBH I,2.3
B9,,1.3
B10,1.78 μmol 4 MU/min/mg CBH I,2.3
B11,,0.5

# Same assay, conditions: double mutant 268X+411A
Molecule,268— +411 A Measured Specific Activity (SA),268— +411 A Δ SA* (change in specific activity; ratio of variant: WT)
B12,1.43 μmol 4 MU/min/mg CBH I,1.9
B13,1.37 μmol 4 MU/min/mg CBH I,1.8
B14,1.35 μmol 4 MU/min/mg CBH I,1.8
B15,2.07 μmol 4 MU/min/mg CBH I,2.7
B16,1.59 μmol 4 MU/min/mg CBH I,2.1
B17,,0.7
B18,0.53 μmol 4 MU/min/mg CBH I,0.7
B19,2.13 μmol 4 MU/min/mg CBH I,2.8
B20,,0.2
B21,0.58 μmol 4 MU/min/mg CBH I,0.8
B22,2.16 μmol 4 MU/min/mg CBH I,2.8

# Assay: 4-MUL cellobiose tolerance/inhibition assay, dose-response IC50 (Example 2)
# Assay type: biochemical
# Conditions: 268 single substitution; averaged IC50 from Tables 8-11; read-out: 268— Measured (merged IC50)
# Summary of the method: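 IC50 reflects cellobiose concentration halving activity, fitted by four-parameter dose-response with zero activity fixed at knockout-strain background. Assays used 4-MUL (0.5 mM) with enzyme at 5 μg/mL or less, pH 6 MES, 25 mM gluconolactone blocking BG, cellobiose up to 100 mM; 4-MU fluorescence read.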
row,Molecule,IC50
1,B1,0.52 mM
2,B2,0.57 mM
3,B3,0.45 mM
4,B4,0.48 mM

# Same assay, conditions: 411 single substitution; averaged IC50 from Tables 8-11; read-out: 411— Measured (merged IC50)
row,Molecule,IC50
1,B5,1.13 mM
2,B6,6.54 mM
3,B7,3.16 mM

# Same assay, conditions: double mutant 268A+411X; averaged IC50 from Tables 8-11; read-out: 268A+411— Measured (merged IC50)
row,Molecule,IC50
1,B8,11.7 mM
2,B9,22.7 mM
3,B10,14.8 mM
4,B11,32.7 mM

# Same assay, conditions: double mutant 268A+411X; expected IC50 (additive values of single mutations); read-out: 268A+411— Expected IC50
row,Molecule,IC50
1,B8,3.91 mM
2,B9,7.12 mM
3,B10,3.73 mM

# Same assay, conditions: double mutant 268A+411X; measured versus expected additive IC50
row,Molecule,synergy of double mutant (measured vs expected additive IC50)
1,B8,3.0
2,B9,3.2
3,B10,4.0

# Same assay, conditions: double mutant 268X+411A; averaged IC50 from Tables 8-11; read-out: 268_+411A Measured (merged IC50)
row,Molecule,IC50
1,B12,9.49 mM
2,B13,9.97 mM
3,B14,5.27 mM
4,B15,9.7 mM
5,B16,9.57 mM
6,B17,6.14 mM
7,B18,1.22 mM
8,B19,9.13 mM
9,B21,16.7 mM
10,B22,8.57 mM

# Same assay, conditions: double mutant 268X+411A; expected IC50 (additive values of single mutations)
row,Molecule,268 +411A Expected IC50
1,B12,1.57 mM
2,B13,1.69 mM
3,B14,1.41 mM
4,B15,1.65 mM
5,B16,1.67 mM
6,B17,1.29 mM
7,B18,1.22 mM
8,B20,1.56 mM
9,B21,1.8 mM
10,B22,1.7 mM

# Same assay, conditions: double mutant 268X+411A; measured versus expected additive IC50
row,Molecule,268_+411A Synergistic**↑
1,B12,6.0
2,B13,5.9
3,B14,3.7
4,B15,5.9
5,B16,5.7
6,B17,4.8
7,B18,1.0
8,B20,14.4
9,B21,9.3
10,B22,5.1
